Molecular target: T1, human Smc6 with Strep-tag II (StreptagII-Smc6) (human, UniProt Q96SB8 1-1091)
T1 sequence (looked up): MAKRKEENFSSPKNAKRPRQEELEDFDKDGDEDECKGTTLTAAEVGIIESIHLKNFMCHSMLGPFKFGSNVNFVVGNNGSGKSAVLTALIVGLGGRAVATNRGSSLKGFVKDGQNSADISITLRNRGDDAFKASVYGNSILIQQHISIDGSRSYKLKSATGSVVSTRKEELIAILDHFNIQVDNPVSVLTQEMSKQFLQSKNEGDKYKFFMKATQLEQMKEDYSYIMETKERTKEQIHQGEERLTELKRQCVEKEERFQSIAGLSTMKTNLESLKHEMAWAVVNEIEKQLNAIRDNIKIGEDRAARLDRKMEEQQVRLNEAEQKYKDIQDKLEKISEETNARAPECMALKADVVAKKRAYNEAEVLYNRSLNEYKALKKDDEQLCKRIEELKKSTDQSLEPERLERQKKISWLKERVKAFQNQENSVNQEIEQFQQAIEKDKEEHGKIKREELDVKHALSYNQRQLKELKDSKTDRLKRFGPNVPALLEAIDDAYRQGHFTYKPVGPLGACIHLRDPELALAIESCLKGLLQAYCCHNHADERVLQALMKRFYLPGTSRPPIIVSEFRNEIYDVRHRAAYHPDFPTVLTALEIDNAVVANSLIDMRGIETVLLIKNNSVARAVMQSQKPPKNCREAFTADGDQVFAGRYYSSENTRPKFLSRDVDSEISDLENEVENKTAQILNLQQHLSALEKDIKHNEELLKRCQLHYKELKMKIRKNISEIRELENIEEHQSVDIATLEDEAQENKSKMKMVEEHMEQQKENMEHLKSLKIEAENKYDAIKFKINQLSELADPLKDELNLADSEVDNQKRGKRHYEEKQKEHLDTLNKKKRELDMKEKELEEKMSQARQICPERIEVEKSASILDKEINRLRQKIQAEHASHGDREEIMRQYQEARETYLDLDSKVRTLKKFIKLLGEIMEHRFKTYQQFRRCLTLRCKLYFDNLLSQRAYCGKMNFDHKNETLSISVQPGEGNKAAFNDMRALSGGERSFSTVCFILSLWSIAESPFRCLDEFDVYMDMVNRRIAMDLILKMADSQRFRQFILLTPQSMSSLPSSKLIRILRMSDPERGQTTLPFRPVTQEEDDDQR
Test: tandem affinity co-purification

stoichiometry N: 1
B1: human Smc5 with poly-histidine tag (His-Smc5), subunit of the Smc5/6 dimer (natural protein, UniProt Q8IY18 1-1101, looked up)
chain: MATPSKKTSTPSPQPSKRALPRDPSSEVPSKRKNSAPQLPLLQSSGPFVEGSIVRISMENFLTYDICEVSPGPHLNMIVGANGTGKSSIVCAICLGLAGKPAFMGRADKVGFFVKRGCSRGMVEIELFRASGNLVITREIDVAKNQSFWFINKKSTTQKIVEEKVAALNIQVGNLCQFLPQDKVGEFAKLSKIELLEATEKSIGPPEMHKYHCELKNLREKEKQLETSCKEKTEYLQKMVQRNERYKQDVERFYERKRHLDLIEMLEAKRPWVEYENVRQEYEEVKLVRDRVKEEVRKLKEGQIPVTCRIEEMENERHNLEARIKEKATDIKEASQKCKQKQDVIERKDKHIEELQQALIVKQNEELDRQRRIGNTRKMIEDLQNELKTTENCENLQPQIDAITNDLRRIQDEKALCEGEIIDKRRERETLEKEKKSVDDHIVRFDNLMNQKEDKLRQRFRDTYDAVLWLRNNRDKFKQRVCEPIMLTINMKDNKNAKYIENHIPSNDLRAFVFESQEDMEVFLKEVRDNKKLRVNAVIAPKSSYADKAPSRSLNELKQYGFFSYLRELFDAPDPVMSYLCCQYHIHEVPVGTEKTRERIERVIQETRLKQIYTAEEKYVVKTSFYSNKVISSNTSLKVAQFLTVTVDLEQRRHLEEQLKEIHRKLQAVDSGLIALRETSKHLEHKDNELRQKKKELLERKTKKRQLEQKISSKLGSLKLMEQDTCNLEEEERKASTKIKEINVQKAKLVTELTNLIKICTSLHIQKVDLILQNTTVISEKNKLESDYMAASSQLRLTEQHFIELDENRQRLLQKCKELMKRARQVCNLGAEQTLPQEYQTQVPTIPNGHNSSLPMVFQDLPNTLDEIDALLTEERSRASCFTGLNPTIVQEYTKREEEIEQLTEELKGKKVELDQYRENISQVKERWLNPLKELVEKINEKFSNFFSSMQCAGEVDLHTENEEDYDKYGIRIRVKFRSSTQLHELTPHHQSGGERSVSTMLYLMALQELNRCPFRVVDEINQGMDPINERRVFEMVVNTACKENTSQYFFITPKLLQNLPYSEKMTVLFVYNGPHMLEPNTWNLKAFQRRRRRITFTQPS

Source: PMC8224240 (Molecular cell, 2020)
